Reference: the supplement of paper PMC12667976
± gives the standard error.

B1: library; numbered along this chain (parent)
chain: MATDAALRRLLRLHRTEIAVAVDSAFPLLHALADHDVVPEDKFQETLHLKEKEGCPQAFHALLSWLLTQDSTAILDFWRVLFKDYNLERYGRLQPILDSFPKDVDLSQPRKGRKPPAVPKALVPPPRLPTKRKASEEARAAAPAALTPRGTASPGSQLKAKPPKKPESSAEQQRLPLGNGIQTMSASVQRAVAMSSGDVPGARGAVEGILIQQVFESGGSKKCIQVGGEFYTPSKFEDSGSGKNKARSSSGPKPLVRAKGAQGAAPGGGEARLGQQGSVPAPLALPSDPQLHQKNEDECAVCRDGGELICCDGCPRAFHLACLSPPLREIPSGTWRCSSCLQATVQEVQPRAEEPRPQEPPVETPLPPGLRSAGEEVRGPPGEPLAGMDTTLVYKHLPAPPSAAPLPGLDSSALHPLLCVGPEGQQNLAPGARCGVCGDGTDVLRCTHCAAAFHWRCHFPAGTSRPGTGLRCRSCSGDVTPAPVEGVLAPSPARLAPGPAKDDTASHEPALHRDDLESLLSEHTFDGILQWAIQSMARPAAPFPS

Variants of: B1
Assay: AIRE transcriptional activation functional score (insulin promoter-GFP; nonsense median 0, synonymous median 1) (normalised score); higher = higher AIRE activity (more reporter activation)
Conditions: with insulin promoter-GFP reporter in HEK293
Description: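 Deep mutational scan of full-length human AIRE (codon-optimized cDNA, DT-POPCode NNN libraries over three regions) integrated at a Bxb1 landing pad in HEK293 cells carrying an insulin core promoter-GFP reporter at a Flp-In site. Cells were sorted for the top 10% GFP about 14 days after transfection. Variant frequency log-ratios (select vs non-select, TileSeq) were rescaled so that the nonsense median is 0 and the synonymous median is 1, then averaged over biological replicates.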

Variant | AIRE transcriptional activation functional score
Q349Y | 1.08 ± 0.22
Q349N | 0.61 ± 0.22
D439A | 1.1 ± 0.4
L28F | -0.285 ± 0.14
L28M | 0.175 ± 0.25
S107W | 1.49 ± 0.037
V279H | 1.06 ± 0.055
A532T | 1.21 ± 0.1
E363C | 1.27 ± 0.054
H319M | 0.921 ± 0.02
H319A | 1.16 ± 0.14
V484T | 1.04 ± 0.26
V226Q | 0.554 ± 0.093
V226F | 0.889 ± 0.18
E354P | 0.835 ± 0.28
E354G | 1.13 ± 0.17
E354V | 1.08 ± 0.095
K111V | 1.37 ± 0.51
E298W | 1.13 ± 0.15
A160Q | -0.113 ± 0.054
E522A | -0.0825 ± 0.095

Variant | AIRE transcriptional activation functional score
P95F | 1.19 ± 0.25
A145Q | 1.12 ± 0.37
L511G | 0.805 ± 0.27
L10F | 0.827 ± 0.25
Q157H | 1.34 ± 0.23
K131F | 0.0637 ± 0.14
K131T | -0.293 ± 0.16
G369Y | 0.617 ± 0.046
L488N | 0.961 ± 0.29
K161Y | 0.674 ± 0.45
V192L | 1.02 ± 0.1
P129L | 0.107 ± 0.25
L417T | 0.966 ± 0.21
L417K | 0.833 ± 0.06
L417G | 0.679 ± 0.13
S464N | 0.563 ± 0.36
G227Y | 0.111 ± 0.25
P163I | 1.05 ± 0.22
L291H | 0.333 ± 0.37
Q358H | 1.12 ± 0.12
P126Q | -0.177 ± 0.055

Variant | AIRE transcriptional activation functional score
Q275V | 1.01 ± 0.2
L7R | 0.0717 ± 0.84
A19W | -0.29 ± 0.099
R471L | 0.799 ± 0.34
S535L | 0.146 ± 0.33
V443G | 1.13 ± 0.13
V443T | 0.921 ± 0.095
A5F | 0.709 ± 0.23
A144E | 0.655 ± 0.26
R190M | 0.19 ± 0.046
C302R | 0.411 ± 0.21
C302F | 0.63 ± 0.18
E375R | 1 ± 0.32
R110Q | 0.31 ± 0.32
R110M | 0.295 ± 0.11
T463M | 1.51 ± 0.09
E353T | 1.19 ± 0.13
E17D | 1.42 ± 0.72
V377P | 1.28 ± 0.077
T147A | 0.279 ± 0.55
T147K | 0.787 ± 0.57

Variant | AIRE transcriptional activation functional score
V301P | 0.662 ± 0.28
V301D | 0.644 ± 0.28
M536N | 0.506 ± 0.036
G477V | 1.13 ± 0.3
V256S | 1.07 ± 0.23
V256D | 0.705 ± 0.26
V420T | 0.608 ± 0.23
P380V | 0.912 ± 0.15
P119D | 0.86 ± 0.28
P119K | 1.36 ± 0.051
P119R | 0.495 ± 0.34
S71L | -0.359 ± 0.47
S71F | 0.353 ± 0.15
E423F | 1.02 ± 0.066
E423P | 0.817 ± 0.18
A21H | 0.216 ± 0.22
D84C | -0.0537 ± 0.25
V206G | 0.631 ± 0.19
V206W | 0.352 ± 0.03
L520H | 0.344 ± 0.097
